Test results: patent US20220235118A1 (IMMUNOME, published 2022)

B1: PR194_00232 (antibody, V domains shown)
VH: EVQLVESGGGLVQPGGSLRLSCSASGFTVSSNYMSWVRQAPRKGLEWVSVIYAGGSTFYADSVKGRFTISRDNSKNTLLLQMNSLRAEDTAVYYCARDRGGYLDYWGQGTLVTVSS
VL: DIQMTQSPSSLSASVGDRVTITCRASQGISNYLAWYQQKPGKVPKLLIYAASTLQSGVPSRFSGSGSGTDFTLTISSLQPEDVATYYCQKYNSAPGLTFGGGTKVEIK
notes: also called IMM20190; PR194_00190
B2: PR200_00622 (antibody, V domains shown)
VH: QVQLVESGGGVVQPGRSLRLSCTASGFTFSTYGMHWVRQAPGKGLEWVAVISYDGSSKHYAESVKGRFTISRDNSNNTLYLQMNRLRAEDTAVYYCARDGQPPGWGNYFDYWGQGTLVTVAS
VL: SYVLTQPPSVSVAPGKTARITCGGNGIGSKSVYWYQQKPGQAPEVVVYDDSDRPSGIPERFSGSNSGNTATLTISRVEAGDEADYYCQVWDSSSDPWVFGGGTKLTVL
notes: also called IMM20253; PR200_00253
B3: PR193_00018 (antibody, V domains shown)
VH: EVQLVESGGGLVQPGGSLRLSCSASGFTFSSFWMSWVRQAPGKGLEWVATIREDGSEKYYVDSVKGRFSISRDNAKNSLYLQMNSLRAEDTAVYYCARSKWLRGSFDYWGQGTLVTVSS
VL: NFMLTQPHSVSESPGKTVTISCTRRSGSIASNYVQWYQQRPGSAPTTVIYEDNQRPSGVPDRFSGSIDSSSNSASLTISGLQTEDEADYYCQSYDSSNPPGASWVFGGGTKLTVL
notes: also called IMM20184; IMM200184

Experiments:
[1] = target: T1, SARS-CoV-2 Spike S1 domain, reference (SARS-CoV-2, UniProt P0DTC2 16-685); assay: HTRF, soluble S1 construct
T1 construct: domain: S1; also called S1 subunit

[2] = target: T2, SARS-CoV-2 Spike receptor binding domain (RBD), reference (USA/WA_CDC-WA1/2020) (SARS-CoV-2, UniProt P0DTC2 319-591); assay: SPR, antibody as ligand, RBD as analyte
[3] = target: T3, SARS-CoV-2 Spike, full-length S (FL, trimer-stabilized), reference (WA1/2020) (SARS-CoV-2, UniProt P0DTC2 14-1208); assay: SPR, antibody as ligand, Trimer as analyte
T3 construct: also called Spike trimer; intact trimer

[4] = target: T2, SARS-CoV-2 Spike receptor binding …; assay: HTRF, soluble RBD construct

Row | Binder | EC50 [1] [pM] | Kd [2] [pM] | koff [2] [s⁻¹] | kon [2] [M⁻¹ s⁻¹] | Kd [3] [pM] | koff [3] [s⁻¹] | kon [3] [M⁻¹ s⁻¹] | EC50 [4] [pM]
1 | B1 | 56 | 1870 | 0.000376 | 202000 | 6590 | 0.000195 | 29500 | 68.2
2 | B2 | 49.1 | 157 | 0.000218 | 1.39e+06 | 1440 | 0.000117 | 81300 | 52.7
3 | B3 | 31.8 | 22000 | 0.00131 | – | 7350 | 0.000229 | 31200 | 44.8
